Data published in article PMC9529903, “Structural insights of the elongation factor EF-Tu complexes in protein translation of Mycobacterium tuberculosis” (Communications Biology, 2022).

How the values were obtained:
[1] = target: T1, EF-Tu (Mycobacterium tuberculosis, UniProt P9WNN1); assay: biochemical; format: binding
T1 construct: gene tuf; full-length

[2] = target: EF-Ts (Escherichia coli) (UniProt P0A6P1); conditions: cited from earlier work
[3] = target: T2, Mycobacterium tuberculosis elongation factor EF-Tu (Mycobacterium tuberculosis, UniProt P9WNN1 1-396); assay: ITC; conditions: both partners purified
T2 construct: also called Mtb EF-Tu
T2 sequence (P9WNN1 whole entry): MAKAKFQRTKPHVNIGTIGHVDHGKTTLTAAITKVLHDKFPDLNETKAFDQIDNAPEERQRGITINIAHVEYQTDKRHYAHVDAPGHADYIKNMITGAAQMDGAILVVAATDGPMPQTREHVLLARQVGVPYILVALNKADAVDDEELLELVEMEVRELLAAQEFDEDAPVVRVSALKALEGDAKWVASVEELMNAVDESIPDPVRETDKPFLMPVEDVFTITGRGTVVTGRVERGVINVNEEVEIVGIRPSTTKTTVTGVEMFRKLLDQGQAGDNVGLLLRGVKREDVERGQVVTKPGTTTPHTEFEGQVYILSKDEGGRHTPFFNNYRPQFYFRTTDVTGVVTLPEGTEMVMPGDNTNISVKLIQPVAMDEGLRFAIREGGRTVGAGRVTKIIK

T1 sequence (P9WNN1 whole entry): as above
EF-Ts (Escherichia coli), sequence (P0A6P1 2-283): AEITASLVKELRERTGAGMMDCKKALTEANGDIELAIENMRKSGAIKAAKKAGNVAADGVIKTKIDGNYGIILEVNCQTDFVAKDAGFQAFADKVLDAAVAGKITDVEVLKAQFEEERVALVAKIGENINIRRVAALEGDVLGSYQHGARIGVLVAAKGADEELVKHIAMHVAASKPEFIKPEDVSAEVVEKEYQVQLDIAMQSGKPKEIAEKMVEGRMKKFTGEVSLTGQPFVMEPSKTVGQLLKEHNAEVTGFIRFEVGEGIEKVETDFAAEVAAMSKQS

Work on C=CC(=O)Nc1cc(Nc2nccc(-c3cn(C)c4ccccc34)n2)c(OC)cc1N(C)CCN(C)C [Osimertinib] yielded a Kd [1] of 207000 nM.

In the case of EF-Tu (from UniProt P0CE47), the Kd [2] is given as 2 nM.

B1: Mycobacterium tuberculosis elongation factor EF-Ts (natural protein)
chain: MANFTAADVKRLRELTGAGMLACKNALAETDGDFDKAVEALRIKGAKDVGKRAERATAEGLVAAKDGALIELNCETDFVAKNAEFQTLADQVVAAAAAAKPADVDALKGASIGDKTVEQAIAELSAKIGEKLELRRVAIFDGTVEAYLHRRSADLPPAVGVLVEYRGDDAAAAHAVALQIAALRARYLSRDDVPEDIVASERRIAEETARAEGKPEQALPKIVEGRLNGFFKDAVLLEQASVSDNKKTVKALLDVAGVTVTRFVRFEVGQA
notes: also called Mtb EF-Ts
With B1 the Kd [3] was ~1360 nM and the “stoichiometry N” value [3] was 1.
